Data reported in the supplement of paper PMC10567573.

B1: LPCAT4 (parent)
chain: HDPLYGKLFSTYLRPPHTSRGTSQ

Variants of: B1
Experiment: protein stability index of a GFP-peptide fusion (GPS, HEK-293T) (PSI 1-6); higher = more stable
Settings: c terminus: a fixed tail appended
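Note: lentivirally expressed fusions sorted by FACS into six bins by GFP to DsRed ratio, PSI derived from sequencing read proportions per bin multiplied by bin number.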

In order of falling protein stability index:
1. HDPLYGKLFSTELRPPHTSRGTSQ  4.3
2. HDPLYGKLFETYLRPPHTSRGTSQ  4.21
3. HDPLYGKLFSTYNRPPHTSRGTSQ  4.16
4. HDPLYGKLFSTPLRPPHTSRGTSQ  4.14
5. HDPLYGKLFPTYLRPPHTSRGTSQ  4.13
6. HDPLYGKLFSTYDRPPHTSRGTSQ  4.11
7. HDPLYGKLFDTYLRPPHTSRGTSQ  4.06
8. HDPLYGKLFSTDLRPPHTSRGTSQ  4.06
9. HDPLYGKLFSTYQRPPHTSRGTSQ  4.06
10. HDPLYGKLFSAYLRPPHTSRGTSQ  4.05
11. HDPLYGKLFSTYSRPPHTSRGTSQ  4.04
12. HDPLYGKLFSTYERPPHTSRGTSQ  3.99
13. HDPLYGKLFNTYLRPPHTSRGTSQ  3.97
14. HDPLYGKLFSTSLRPPHTSRGTSQ  3.97
15. HDPLYGKLFSTTLRPPHTSRGTSQ  3.95
16. HDPLYGKLFSTKLRPPHTSRGTSQ  3.91
17. HDPLYGKLFSTYLDPPHTSRGTSQ  3.9
18. HDPLYGKLFSTYHRPPHTSRGTSQ  3.88
19. HDPLYGKLFHTYLRPPHTSRGTSQ  3.8
20. HDPLYGKLFQTYLRPPHTSRGTSQ  3.78
21. HDPLYGKLFSTRLRPPHTSRGTSQ  3.76
22. HDPLYGKLFSTALRPPHTSRGTSQ  3.74
23. HDPLYGKLFSTYLGPPHTSRGTSQ  3.73
24. HDPLYGKLFSTYARPPHTSRGTSQ  3.73
25. HDPLYGKLFSTYVRPPHTSRGTSQ  3.72
26. HDPLYGKLFSTYTRPPHTSRGTSQ  3.72
27. HDPLYGKLFSTYLPPPHTSRGTSQ  3.71
28. HDPLYGKLFTTYLRPPHTSRGTSQ  3.63
29. HDPLYGKLFSTYGRPPHTSRGTSQ  3.62
30. HDPLYGKLFSTQLRPPHTSRGTSQ  3.53
31. HDPLYGKLFSDYLRPPHTSRGTSQ  3.46
32. HDPLYGKLFKTYLRPPHTSRGTSQ  3.46
33. HDPLYGKLFSKYLRPPHTSRGTSQ  3.45
34. HDPLYGKLFSTYKRPPHTSRGTSQ  3.44
35. HDPLYGKLFSQYLRPPHTSRGTSQ  3.43
36. HDPLYGKLFSTNLRPPHTSRGTSQ  3.4
37. HDPLYGKLFSTYLEPPHTSRGTSQ  3.4
38. HDPLYGKLFSTYRRPPHTSRGTSQ  3.39
39. HDPLYGKLFSTYLRPDHTSRGTSQ  3.37
40. HDPLYGKLFSTGLRPPHTSRGTSQ  3.36
41. HDPLYGKLFGTYLRPPHTSRGTSQ  3.34
42. HDPLYGKLFSTHLRPPHTSRGTSQ  3.31
43. HDPLYGKLFSTYLHPPHTSRGTSQ  3.28
44. HDPLYGKLFSTYLRPQHTSRGTSQ  3.27
45. HDPLYGKLFSTYLRPPETSRGTSQ  3.22
46. HDPLYGKLFSTYPRPPHTSRGTSQ  3.21
47. HDPLYGKLFSTYFRPPHTSRGTSQ  3.21
48. HDPLYGKLFSTYLRGPHTSRGTSQ  3.2
49. HDPLYGKLFSTYLRPEHTSRGTSQ  3.19
50. HDPLYGKLFSTYLIPPHTSRGTSQ  3.17
51. HDPLYGKLFSTYLVPPHTSRGTSQ  3.17
52. HDPLYGKLFSTYLRDPHTSRGTSQ  3.16
53. HDPLYGKLFSTYLRPMHTSRGTSQ  3.13
54. HDPLYGKLFSTYLRPPHTNRGTSQ  3.12
55. HDPLYGKLFSTILRPPHTSRGTSQ  3.11
56. HDPLYGKLFSTYLRPPHTDRGTSQ  3.1
57. HDPLYGKLFSTYMRPPHTSRGTSQ  3.1
58. HDPLYGKLFSTYLTPPHTSRGTSQ  3.09
59. HDPLYGKLFSTYLAPPHTSRGTSQ  3.08
60. HDPLYGKLFSEYLRPPHTSRGTSQ  3.07
61. HDPLYGKLFSTYIRPPHTSRGTSQ  3.06
62. HDPLYGKLFSHYLRPPHTSRGTSQ  3.05
63. HDPLYGKLFSTYLRPPHNSRGTSQ  3.05
64. HDPLYGKLFSTYLNPPHTSRGTSQ  3.04
65. HDPLYGKLFSNYLRPPHTSRGTSQ  3.02
66. HDPLYGKLFRTYLRPPHTSRGTSQ  3.02
67. HDPLYGKLFSTYLRPGHTSRGTSQ  3.01
68. HDPLYGKLFSTYLRPKHTSRGTSQ  3.01
69. HDPLYGKLFSTCLRPPHTSRGTSQ  3.01
70. HDPLYGKLFSTYLRPPPTSRGTSQ  2.99
71. HDPLYGKLFLTYLRPPHTSRGTSQ  2.96
72. HDPLYGKLFSTYLRPNHTSRGTSQ  2.94
73. HDPLYGKLFSRYLRPPHTSRGTSQ  2.94
74. HDPLYGKLFSMYLRPPHTSRGTSQ  2.92
75. HDPLYGKLFSTVLRPPHTSRGTSQ  2.92
76. HDPLYGKLFSTYLRPPHTCRGTSQ  2.91
77. HDPLYGKLFSTYLRPPFTSRGTSQ  2.9
78. HDPLYGKLFSTYLRRPHTSRGTSQ  2.85
79. HDPLYGKLFSTLLRPPHTSRGTSQ  2.85
80. HDPLYGKLFSTYLRPPHDSRGTSQ  2.83
81. HDPLYGKLFSTYLQPPHTSRGTSQ  2.83
82. HDPLYGKLFSYYLRPPHTSRGTSQ  2.82
83. HDPLYGKLFSTYLRPPTTSRGTSQ  2.82
84. HDPLYGKLFSTYLRPPDTSRGTSQ  2.82
85. HDPLYGKLFSTYLFPPHTSRGTSQ  2.81
86. HDPLYGKLFSTYLYPPHTSRGTSQ  2.81
87. HDPLYGKLFSTYLRPPHTGRGTSQ  2.8
88. HDPLYGKLFSTFLRPPHTSRGTSQ  2.8
89. HDPLYGKLFSTYLRPPHTIRGTSQ  2.79
90. HDPLYGKLFSTYLRPPATSRGTSQ  2.79
91. HDPLYGKLFSTYLMPPHTSRGTSQ  2.79
92. HDPLYGKLFSTYLCPPHTSRGTSQ  2.78
93. HDPLYGKLFSTYYRPPHTSRGTSQ  2.78
94. HDPLYGKLFSTYLRPRHTSRGTSQ  2.77
95. HDPLYGKLFSWYLRPPHTSRGTSQ  2.77
96. HDPLYGKLFSTYWRPPHTSRGTSQ  2.77
97. HDPLYGKLFSTYCRPPHTSRGTSQ  2.77
98. HDPLYGKLFSTYLRPTHTSRGTSQ  2.76
99. HDPLYGKLFSTMLRPPHTSRGTSQ  2.76
100. HDPLYGKLFSFYLRPPHTSRGTSQ  2.75
101. HDPLYGKLFSTYLRPPHTRRGTSQ  2.74
102. HDPLYGKLFMTYLRPPHTSRGTSQ  2.72
103. HDPLYGKLFSTYLRPPHTARGTSQ  2.72
104. HDPLYGKLFSTYLRPPHTPRGTSQ  2.7
105. HDPLYGKLFSTYLRAPHTSRGTSQ  2.7
106. HDPLYGKLFSTYLRPPCTSRGTSQ  2.7
107. HDPLYGKLFSTYLSPPHTSRGTSQ  2.69
108. HDPLYGKLFSTYLRPLHTSRGTSQ  2.68
109. HDPLYGKLFSTYLRPPHVSRGTSQ  2.68
110. HDPLYGKLFSTYLRPSHTSRGTSQ  2.67
111. HDPLYGKLFSTYLRPPHCSRGTSQ  2.66
112. HDPLYGKLFSTYLRPPLTSRGTSQ  2.66
113. HDPLYGKLFSTYLKPPHTSRGTSQ  2.66
114. HDPLYGKLFSTYLRPPHKSRGTSQ  2.65
115. HDPLYGKLFVTYLRPPHTSRGTSQ  2.64
116. HDPLYGKLFSSYLRPPHTSRGTSQ  2.63
117. HDPLYGKLFSTYLRPPHTKRGTSQ  2.62
118. HDPLYGKLFSTYLRPPHQSRGTSQ  2.61
119. HDPLYGKLFSTYLRPPHHSRGTSQ  2.61
120. HDPLYGKLFSTYLRPPHTTRGTSQ  2.61
121. HDPLYGKLFSTYLRPPQTSRGTSQ  2.61
122. HDPLYGKLFSTYLRPPHESRGTSQ  2.6
123. HDPLYGKLFSTYLRKPHTSRGTSQ  2.6
124. HDPLYGKLFSTYLRPPNTSRGTSQ  2.59
125. HDPLYGKLFSTYLRPPHRSRGTSQ  2.57
126. HDPLYGKLFSTYLRPPHMSRGTSQ  2.57
127. HDPLYGKLFSTYLRPPHTVRGTSQ  2.55
128. HDPLYGKLFSTWLRPPHTSRGTSQ  2.53
129. HDPLYGKLFSTYLRPPYTSRGTSQ  2.53
130. HDPLYGKLFSTYLRPPVTSRGTSQ  2.53
131. HDPLYGKLFSTYLRPHHTSRGTSQ  2.52
132. HDPLYGKLFSTYLRPPHISRGTSQ  2.52
133. HDPLYGKLFSTYLRPPHASRGTSQ  2.52
134. HDPLYGKLFSTYLRYPHTSRGTSQ  2.52
135. HDPLYGKLFSTYLWPPHTSRGTSQ  2.52
136. HDPLYGKLFSTYLRPPHTQRGTSQ  2.51
137. HDPLYGKLFSTYLRMPHTSRGTSQ  2.51
138. HDPLYGKLFSGYLRPPHTSRGTSQ  2.49
139. HDPLYGKLFITYLRPPHTSRGTSQ  2.49
140. HDPLYGKLFSCYLRPPHTSRGTSQ  2.48
141. HDPLYGKLFSPYLRPPHTSRGTSQ  2.48
142. HDPLYGKLFSTYLRSPHTSRGTSQ  2.48
143. HDPLYGKLFSTYLRQPHTSRGTSQ  2.47
144. HDPLYGKLFSTYLRHPHTSRGTSQ  2.47
145. HDPLYGKLFSTYLRPVHTSRGTSQ  2.46
146. HDPLYGKLFSIYLRPPHTSRGTSQ  2.46
147. HDPLYGKLFSTYLRPPHPSRGTSQ  2.45
148. HDPLYGKLFWTYLRPPHTSRGTSQ  2.44
149. HDPLYGKLFSTYLRPPHTERGTSQ  2.44
150. HDPLYGKLFSTYLRPPITSRGTSQ  2.43
151. HDPLYGKLFSTYLRPPMTSRGTSQ  2.43
152. HDPLYGKLFSTYLRPWHTSRGTSQ  2.42
153. HDPLYGKLFSTYLRPPHLSRGTSQ  2.42
154. HDPLYGKLFSTYLRVPHTSRGTSQ  2.42
155. HDPLYGKLFSTYLRPIHTSRGTSQ  2.41
156. HDPLYGKLFSTYLRPPHGSRGTSQ  2.41
157. HDPLYGKLFSLYLRPPHTSRGTSQ  2.39
158. HDPLYGKLFSTYLRPPKTSRGTSQ  2.38
159. HDPLYGKLFSTYLRWPHTSRGTSQ  2.37
160. HDPLYGKLFSTYLRPPHTLRGTSQ  2.36
161. HDPLYGKLFSTYLRNPHTSRGTSQ  2.36
162. HDPLYGKLFSTYLRPPHTMRGTSQ  2.35
163. HDPLYGKLFSTYLRIPHTSRGTSQ  2.32
164. HDPLYGKLFSTYLLPPHTSRGTSQ  2.32
165. HDPLYGKLFSTYLRPPSTSRGTSQ  2.31
166. HDPLYGKLFSTYLRPPHSSRGTSQ  2.3
167. HDPLYGKLFSTYLRPPRTSRGTSQ  2.3
168. HDPLYGKLFSTYLRPPHYSRGTSQ  2.29
169. HDPLYGKLFSTYLRPPHTHRGTSQ  2.29
170. HDPLYGKLFSTYLRLPHTSRGTSQ  2.27
171. HDPLYGKLFSTYLRPCHTSRGTSQ  2.26
172. HDPLYGKLFSTYLRPPGTSRGTSQ  2.25
173. HDPLYGKLFSVYLRPPHTSRGTSQ  2.24
174. HDPLYGKLFSTYLRPPHFSRGTSQ  2.24
175. HDPLYGKLFSTYLRPYHTSRGTSQ  2.22
176. HDPLYGKLFSTYLRPAHTSRGTSQ  2.2
177. HDPLYGKLFSTYLRPPWTSRGTSQ  2.19
178. HDPLYGKLFSTYLREPHTSRGTSQ  2.13
179. HDPLYGKLFSTYLRPPHWSRGTSQ  2.12
180. HDPLYGKLFSTYLRCPHTSRGTSQ  2.11
181. HDPLYGKLFSTYLRFPHTSRGTSQ  2.08
182. HDPLYGKLFSTYLRPPHTFRGTSQ  2.07
183. HDPLYGKLFCTYLRPPHTSRGTSQ  1.97
184. HDPLYGKLFFTYLRPPHTSRGTSQ  1.96
185. HDPLYGKLFSTYLRPPHTWRGTSQ  1.95
186. HDPLYGKLFSTYLRTPHTSRGTSQ  1.88
187. HDPLYGKLFSTYLRPFHTSRGTSQ  1.77
188. HDPLYGKLFYTYLRPPHTSRGTSQ  1.67
